Molecular target: human TSHR (thyroid stimulating hormone receptor), full length, expressed in transfected CHO cells (human) (UniProt P16473)
Experiment: cell-based or functional assay

B1: 5C9 IgG (antibody, from another filing, V domains shown)
VH: EVQLVESGGGLIQPGGSLRLSCAASGFTVSSNYMSWVRQAPGKGLEWVSVTYSGGSTSYADSVKGRFTISRDNSKNTLYLQMNSLRAEDTAVYYCARGGRYCSSISCYARSGCDYWGQGTLVTVSS
VL: AIQMTQSPSSLSASVGDRVTITCRASQSISNYLNWYQQKPGKAPKLLIYAASSLQSGVPSRFSGSGSGTDFTLTISSLQPEDFATYYCQQSYSSPSTTFGQGTKLEIK
  % Inhibition of K1-18 IgG stimulation; 10 ng/mL K1-18 IgG + 0.001 µg/mL 5C9 IgG: 19%
  % Inhibition of K1-18 IgG stimulation; 10 ng/mL K1-18 IgG + 0.01 µg/mL 5C9 IgG: 0%
  % Inhibition of K1-18 IgG stimulation; 10 ng/mL K1-18 IgG + 0.1 µg/mL 5C9 IgG: 91%
  % Inhibition of K1-18 IgG stimulation; 10 ng/mL K1-18 IgG + 0.5 µg/mL 5C9 IgG: 99%
  % Inhibition of K1-18 IgG stimulation; 10 ng/mL K1-18 IgG + 1 µg/mL 5C9 IgG: 98%
  % Inhibition of K1-18 IgG stimulation; 10 ng/mL K1-18 IgG + 5 µg/mL 5C9 IgG: 97%
  % Inhibition of K1-18 IgG stimulation; 10 ng/mL K1-18 IgG + 10 µg/mL 5C9 IgG: 97%
  % Inhibition of K1-18 IgG stimulation; 10 ng/mL K1-18 IgG + 50 µg/mL 5C9 IgG: 100%
  % Inhibition of K1-18 IgG stimulation; 10 ng/mL K1-18 IgG + 100 µg/mL 5C9 IgG: 100%
  % Inhibition of K1-18 stimulation; 10 ng/mL K1-18 + 0.001 µg/mL 5C9 IgG: 0%
  % Inhibition of K1-18 stimulation; 10 ng/mL K1-18 + 0.01 µg/mL 5C9 IgG: 25%
  % Inhibition of K1-18 stimulation; 10 ng/mL K1-18 + 0.1 µg/mL 5C9 IgG: 99%
  % Inhibition of K1-18 stimulation; 10 ng/mL K1-18 + 1 µg/mL 5C9 IgG: 99.4%
  % Inhibition of K1-18 stimulation; 10 ng/mL K1-18 + 10 µg/mL 5C9 IgG: 99.6%
  % Inhibition of K1-18 stimulation; 10 ng/mL K1-18 + 100 µg/mL 5C9 IgG: 98.7%

— patent US20110300138A1 (published 2011)
